{
  "source": "paper PMC5137443",
  "assay_in_all_cases": "filter binding",
  "key": {"[1]": {"molecular_target": "T1, POT1 (Homo sapiens, UniProt Q9NUX5 1-634)", "T1 sequence": "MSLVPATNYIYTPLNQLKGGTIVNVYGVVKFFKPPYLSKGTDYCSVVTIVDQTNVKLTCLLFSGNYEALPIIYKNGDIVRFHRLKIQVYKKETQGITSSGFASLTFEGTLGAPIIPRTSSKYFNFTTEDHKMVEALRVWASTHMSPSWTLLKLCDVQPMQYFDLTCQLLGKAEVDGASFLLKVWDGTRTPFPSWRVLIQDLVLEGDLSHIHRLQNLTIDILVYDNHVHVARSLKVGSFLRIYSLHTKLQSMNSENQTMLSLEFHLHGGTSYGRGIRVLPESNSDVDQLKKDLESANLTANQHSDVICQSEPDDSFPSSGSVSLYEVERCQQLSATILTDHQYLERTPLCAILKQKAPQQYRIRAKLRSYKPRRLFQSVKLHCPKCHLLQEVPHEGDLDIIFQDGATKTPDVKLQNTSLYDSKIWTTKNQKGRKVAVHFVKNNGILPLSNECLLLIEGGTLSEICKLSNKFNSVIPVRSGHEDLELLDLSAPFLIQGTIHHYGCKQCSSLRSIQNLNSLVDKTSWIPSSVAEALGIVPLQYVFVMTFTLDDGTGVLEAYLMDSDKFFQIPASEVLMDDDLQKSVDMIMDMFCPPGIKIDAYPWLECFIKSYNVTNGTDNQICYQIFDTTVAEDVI"}, "[2]": {"molecular_target": "POT1;TPP1-L45 mutant (Homo sapiens;Homo sapiens, UniProt Q9NUX5;Q96AP0 1-634;3-105+=AAAAA+116-248, |internal_change)"}, "[3]": {"molecular_target": "POT1;TPP1-L23 mutant (Homo sapiens;Homo sapiens, UniProt Q9NUX5;Q96AP0 1-634;3-248, |D62A;G63A;T64A;H65A)"}, "[4]": {"molecular_target": "POT1;TPP1 (WT) (Homo sapiens;Homo sapiens, UniProt Q9NUX5;Q96AP0 1-634;3-248, |)"}},
  "data": [
    {"binder": "GGTTAGGGTTAG (ssDNA)", "note": "[hT12wt, d(GGTTAG)2]", "values": [
      {"measurement": "Kd", "setting": "[1]", "result": "38.2 ± 4.8", "unit": "nM"},
      {"measurement": "Kd", "setting": "[2]", "result": "13.7 ± 5.5", "unit": "nM"},
      {"measurement": "Kd", "setting": "[3]", "result": "27.3 ± 4.2", "unit": "nM"},
      {"measurement": "Kd", "setting": "[4]", "result": "3.8 ± 0.5", "unit": "nM"}
    ]}
  ]
}
